We go through one variant from IntAct's records for PubMed 18188153.

To fix the notation:
B1: Glutamate receptor 4 (Rattus norvegicus (Rat)), P19493 (parent)
chain: MRIICRQIVLLFSGFWGLAMGAFPSSVQIGGLFIRNTDQEYTAFRLAIFLHNTSPNASEAPFNLVPHVDNIETANSFAVTNAFCSQYSRGVFAIFGLYDKRSVHTLTSFCSALHISLITPSFPTEGESQFVLQLRPSLRGALLSLLDHYEWNCFVFLYDTDRGYSILQAIMEKAGQNGWHVSAICVENFNDVSYRQLLEELDRRQEKKFVIDCEIERLQNILEQIVSVGKHVKGYHYIIANLGFKDISLERFIHGGANVTGFQLVDFNTPMVTKLMDRWKKLDQREYPGSETPPKYTSALTYDGVLVMAETFRSLRRQKIDISRRGNAGDCLANPAAPWGQGIDMERTLKQVRIQGLTGNVQFDHYGRRVNYTMDVFELKSTGPRKVGYWNDMDKLVLIQDMPTLGNDTAAIENRTVVVTTIMESPYVMYKKNHEMFEGNDKYEGYCVDLASEIAKHIGIKYKIAIVPDGKYGARDADTKIWNGMVGELVYGKAEIAIAPLTITLVREEVIDFSKPFMSLGISIMIKKPQKSKPGVFSFLDPLAYEIWMCIVFAYIGVSVVLFLVSRFSPYEWHTEEPEDGKEGPSDQPPNEFGIFNSLWFSLGAFMQQGCDISPRSLSGRIVGGVWWFFTLIIISSYTANLAAFLTVERMVSPIESAEDLAKQTEIAYGTLDSGSTKEFFRRSKIAVYEKMWTYMRSAEPSVFTRTTAEGVARVRKSKGKFAFLLESTMNEYTEQRKPCDTMKVGGNLDSKGYGVATPKGSSLGNAVNLAVLKLNEQGLLDKLKNKWWYDKGECGSGGGDSKDKTSALSLSNVAGVFYILVGGLGLAMLVALIEFCYKSRAEAKRMKLTFSEATRNKARLSITGSVGENGRVLTPDCPKAVHTGTAIRQSSGLAVIASDLP

The test covers variants of B1. The conditions noted are these: with mk08_rat Mapk8, P49185.
mk08_rat Mapk8, P49185, sequence (P49185 whole entry): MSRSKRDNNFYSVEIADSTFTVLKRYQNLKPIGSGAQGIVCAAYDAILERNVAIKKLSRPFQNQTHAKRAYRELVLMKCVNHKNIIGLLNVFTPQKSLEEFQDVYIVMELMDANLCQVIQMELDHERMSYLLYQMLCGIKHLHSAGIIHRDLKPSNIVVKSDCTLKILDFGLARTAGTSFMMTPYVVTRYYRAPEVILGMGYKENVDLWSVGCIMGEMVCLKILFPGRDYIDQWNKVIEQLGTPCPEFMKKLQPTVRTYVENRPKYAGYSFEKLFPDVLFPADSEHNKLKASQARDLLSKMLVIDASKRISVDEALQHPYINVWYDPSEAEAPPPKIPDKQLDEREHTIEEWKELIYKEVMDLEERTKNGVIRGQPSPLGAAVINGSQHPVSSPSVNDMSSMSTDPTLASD
Regarding T855A, the “effect of a mutation on the interaction” value is given as “disrupting interaction”.
